# Measurements reported in US11975040B2, “Plexin binding regulator” (The University of Tokyo, priority 2016, dated 2024).
# Like-named read-outs stand apart in the source and are kept apart here. Positions of bridges follow the written chain, without caps; N, C: chain ends. Non-standard residues stand in square brackets, D forms with d. Residues, ends and D or L forms follow the SMILES beside them. No end group written: not given here.
# T1: mouse Plexin B1 and Semaphorin 4D (Mus musculus, UniProt Q8CJH3)
# T1 sequence (Q8CJH3 20-535 limits assumed): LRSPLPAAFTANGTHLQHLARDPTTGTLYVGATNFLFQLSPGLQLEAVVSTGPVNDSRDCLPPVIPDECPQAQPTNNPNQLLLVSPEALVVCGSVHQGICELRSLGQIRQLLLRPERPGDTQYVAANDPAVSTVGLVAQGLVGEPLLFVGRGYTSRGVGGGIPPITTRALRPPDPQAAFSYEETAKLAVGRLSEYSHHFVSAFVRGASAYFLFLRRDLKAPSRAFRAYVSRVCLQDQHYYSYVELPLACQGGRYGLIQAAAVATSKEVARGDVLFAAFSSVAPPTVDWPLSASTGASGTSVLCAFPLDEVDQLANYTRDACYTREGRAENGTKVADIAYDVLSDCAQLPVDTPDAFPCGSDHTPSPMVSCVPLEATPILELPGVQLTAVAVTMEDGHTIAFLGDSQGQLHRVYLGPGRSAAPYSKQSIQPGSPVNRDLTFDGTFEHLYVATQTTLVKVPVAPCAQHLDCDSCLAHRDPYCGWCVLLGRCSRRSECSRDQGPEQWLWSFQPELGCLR
# T2: human Plexin B1 (human, UniProt O43157 20-535, limits assumed)
# T2 sequence (looked up): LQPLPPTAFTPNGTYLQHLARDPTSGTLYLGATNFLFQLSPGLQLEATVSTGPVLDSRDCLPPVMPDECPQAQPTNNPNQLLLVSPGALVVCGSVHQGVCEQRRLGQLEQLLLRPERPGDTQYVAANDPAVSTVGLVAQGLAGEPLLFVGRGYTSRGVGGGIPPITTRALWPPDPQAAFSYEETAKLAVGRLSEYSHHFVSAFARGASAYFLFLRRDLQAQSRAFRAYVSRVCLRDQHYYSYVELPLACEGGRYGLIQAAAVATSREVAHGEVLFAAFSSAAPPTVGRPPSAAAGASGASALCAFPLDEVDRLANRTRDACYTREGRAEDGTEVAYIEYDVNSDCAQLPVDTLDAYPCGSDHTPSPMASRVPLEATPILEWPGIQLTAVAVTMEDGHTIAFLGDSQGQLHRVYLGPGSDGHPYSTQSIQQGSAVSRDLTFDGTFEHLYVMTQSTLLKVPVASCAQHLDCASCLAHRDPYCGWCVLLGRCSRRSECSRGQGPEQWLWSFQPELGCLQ
# T3: mouse Plexin B1 (mouse, UniProt Q8CJH3 20-535, limits assumed)
# T3 sequence (looked up): T1 sequence (Q8CJH3 20-535 limits assumed)
# Columns and labels:
# [1] = stability test with serum protease; format: in vitro ADME; settings: degradation by serum protease
# Procedure: A stability test, with serum protease, of the cyclic peptide P6 and the cyclic peptide having an intramolecular lactam bridge structure was performed (FIG. 11c).
# [2] = biological target: T1, mouse Plexin B1 and Semaphorin 4D; assay: in vitro pulldown assay of mouse Plexin B1 / Semaphorin 4D interaction (AP activity); format: biochemical; settings: compared with cyclic peptide P6
# Procedure: The effect of the cyclic peptides shown in FIG. 2c on protein-protein interaction (PPI) of Plexin B1 and Semaphorin 4D was studied by in vitro pulldown assay (FIG. 3). • 1. Plexin B1 or Plexin A2 was immobilized on Sepharose beads. • 2. A cyclic peptide that bound to Plexin B1, a negative control peptide, or dimethylsulfoxide (DMSO) was added to Plexin-B1-immobilized beads. • 3. An alkali phosphatase (AP)-fused protein of Semaphorin 4D or Semaphorin 6A was added. • 4. After washing of the resulting beads, an increase in absorbance of the sample was measured at 405 nm to determined AP activity.
# High AP activity relates to high interaction (5) between Semaphorin and Plexin and low AP activity relates to […] interaction (6) between Semaphorin and Plexin.
# Plexin B1 [3] = assay: Ka (µM^-1s^-1)
# Description: (§1) Table printed on a drawing sheet, FIG. 2
# Head of the field: Ka (µM^-1s^-1)
# (§2) The sequences from top to bottom are SEQ ID NO: 40, SEQ ID NO: 31, SEQ ID NO: 37, SEQ ID NO: 30, SEQ ID NO: 38, and SEQ ID NO: 39.
# (§3) First copying reader's note: The sequences are only the variable region of the cyclic scaffold drawn in panel b, DW(Variable region)CS-NH2 closed by a thioether bridge.
# (§4) Where the first naming reader finds the target: description_of_the_figure: the respective amino acid sequence of the cyclic peptides and their binding affinity to Plexin B1
# Plexin B1 [4] = assay: KD (nM)
# Description: as §1
# (§5) Head of the field: KD (nM)
# as §2, §3, §4
# Plexin B1 [5] = assay: Kd (s^-1)
# Description: as §1
# Head of the field: Kd (s^-1)
# as §2, §3, §4
# Plexin B1 [6] = assay: ka (μM^-1s^-1)
# Description: (§6) Table printed on a drawing sheet, FIG. 13
# Head of the field: ka (μM^-1s^-1)
# (§7) First copying reader's note: Panel b of FIG. 13; panel a is a bar chart and is left out.
# Plexin B1 [7] = assay: kd (ms^-1)
# Description: as §6
# Head of the field: kd (ms^-1)
# as §7
# Plexin B1 [8] = assay: KD (nM); remark: listed apart in the source
# Description: as §6, §5, §7
# Plexin B1 [9] = assay: kd (s^-1)
# Procedure: (§8) Table printed on a drawing sheet, FIG. 11
# Head of the field: kd (s^-1)
# (§9) First copying reader's note: Panel a of FIG. 11; the BC8 row is highlighted with a frame on the sheet.
# (§10) Where the first naming reader finds the target: passage: its binding affinity to Plexin B1 was analyzed by surface resonance plasmon (SPR) (FIG. 11a)
# Plexin B1 [10] = assay: KD (nM); remark: listed apart in the source
# Procedure: as §8, §5, §9, §10
# human Plexin B1 [11] = biological target: T2, human Plexin B1; assay: SPR
# mouse Plexin B1 = biological target: T3, mouse Plexin B1; assay: SPR
# human Plexin B1 [12] = biological target: T2, human Plexin B1; assay: SPR; remark: listed apart in the source
# human Plexin B1 [13] = biological target: T2, human Plexin B1; assay: SPR; remark: listed apart in the source
molecule,measurement,setting,value
"CC[C@H](C)[C@@H]1NC(=O)[C@H](CCC(N)=O)NC(=O)CNC(=O)[C@H]([C@@H](C)O)NC(=O)[C@H](Cc2c[nH]c3ccccc23)NC(=O)[C@H](CCCNC(=N)N)NC(=O)[C@H](C)NC(=O)[C@H](C(C)C)NC(=O)[C@H](CCCNC(=N)N)NC(=O)[C@@H]2CCCN2C(=O)[C@H](CCCNC(=N)N)NC(=O)[C@@H](Cc2c[nH]c3ccccc23)NC(=O)CSC[C@@H](C(=O)N[C@@H](CO)C(N)=O)NC(=O)[C@H](Cc2ccc(O)cc2)NC(=O)[C@H]([C@@H](C)CC)NC1=O [P6, wRPRVARWTGQITYC] ({CH2CO}-[dW]RPRVARWTGQIIYCS-NH2; thioether N-15 (inferred); N-terminus and C-terminus assumed)",half-life,[1],3 to 6 h
"CC(C)[C@@H]1NC(=O)[C@H](Cc2ccc(O)cc2)NC(=O)[C@H](Cc2ccccc2)NC(=O)[C@H]([C@@H](C)O)NC(=O)CNC(=O)[C@H]([C@@H](C)O)NC(=O)[C@H](Cc2c[nH]c3ccccc23)NC(=O)[C@H](CCCNC(=N)N)NC(=O)[C@H](CC(=O)O)NC(=O)[C@H](Cc2ccc(O)cc2)NC(=O)[C@H](Cc2ccccc2)NC(=O)[C@H](Cc2c[nH]c3ccccc23)NC(=O)[C@H](CCCNC(=N)N)NC(=O)[C@@H](Cc2c[nH]c3ccccc23)NC(=O)CSC[C@@H](C(=O)NCC(N)=O)NC1=O [mp6-2, wRWFYDRWTGTFYVC] ({CH2CO}-[dW]RWFYDRWTGTFYVCG-NH2; thioether N-15)",interaction inhibiting activity between mouse Plexin B1 and Semaphorin 4D,[2],equivalent to that of the cyclic peptide P6
AVSNLPPRPHITYIE [P1],Ka,Plexin B1 [3],20000 M⁻¹ s⁻¹
same,Kd,Plexin B1 [4],700 nM
same,Kd,Plexin B1 [5],0.014 s⁻¹
NGTLSWQTYSHL [P8],Ka,Plexin B1 [3],53000 M⁻¹ s⁻¹
same,Kd,Plexin B1 [4],689 nM
same,Kd,Plexin B1 [5],0.037 s⁻¹
P6dPEG5: dimerized cyclic peptide P6 (FIG. 12b) ({CH2CO}-[dW]RPRVARWTGQIIYCS; thioether N-15; also: dimer: two units joined after S16 by PEG linkers),ka,Plexin B1 [6],1.18e+06 M⁻¹ s⁻¹
same,kd (ms^-1),Plexin B1 [7],0.447 ms^-1
RPRAARWTGQIIY (not fully specified) [P5],Ka,Plexin B1 [3],21000 M⁻¹ s⁻¹
same,Kd,Plexin B1 [4],77.1 nM
same,Kd,Plexin B1 [5],0.002 s⁻¹
RVRVERWTGKLI (not fully specified) [P3],Ka,Plexin B1 [3],4.27e+06 M⁻¹ s⁻¹
same,Kd,Plexin B1 [4],33.7 nM
same,Kd,Plexin B1 [5],0.144 s⁻¹
wRPRVARWTGQITYC [P6],Kd,Plexin B1 [8],3.34 nM
same,Ka,Plexin B1 [3],3.46e+06 M⁻¹ s⁻¹
same,kd,Plexin B1 [9],0.0151 s⁻¹
same,Kd,Plexin B1 [4],3.5 nM
same,Kd,Plexin B1 [10],3.81 nM
same,Kd,Plexin B1 [5],0.012 s⁻¹
"{CH2CO}-[dW]RPRVARWTGQIIYCS (thioether N-15; also: dimer, two units joined after S16 by PEG linkers, also called dimerized cyclic peptide P6) [P6dPEG5]",Kd,human Plexin B1 [11],0.38 nM
same,kon,human Plexin B1 [11],1.18e+06 M⁻¹ s⁻¹
{CH2CO}-[dW]LAYIERWTGQIVRCG (thioether N-15) [cyclic peptide mp6-5],Kd,mouse Plexin B1,507 nM
same,Kd,human Plexin B1 [12],174 nM
{CH2CO}-[dW]RAFIERWTGRLVVCG (thioether N-15) [cyclic peptide mp6-7],Kd,mouse Plexin B1,126 nM
same,Kd,human Plexin B1 [12],4.58 nM
{CH2CO}-[dW]NGTLSWQTYSHLCS (thioether N-14) [SEQ ID NO 39],Kd,human Plexin B1 [13],689 nM
same,koff,human Plexin B1 [13],0.037 s⁻¹
same,kon,human Plexin B1 [13],53000 M⁻¹ s⁻¹
{CH2CO}-[dW]RPRAARWTGQIIYCS (thioether N-15) [SEQ ID NO 37],Kd,human Plexin B1 [13],77.1 nM
same,koff,human Plexin B1 [13],0.002 s⁻¹
same,kon,human Plexin B1 [13],21000 M⁻¹ s⁻¹
{CH2CO}-[dW]NSNVLSWQTYSWYCS (thioether N-15) [SEQ ID NO 38],Kd,human Plexin B1 [13],275 nM
same,koff,human Plexin B1 [13],0.01 s⁻¹
same,kon,human Plexin B1 [13],38000 M⁻¹ s⁻¹
{CH2CO}-[dW]RPRVARWTGQIIYCS (thioether N-15) [SEQ ID NO 30],Kd,human Plexin B1 [13],3.5 nM
same,koff,human Plexin B1 [13],0.012 s⁻¹
same,kon,human Plexin B1 [13],3.46e+06 M⁻¹ s⁻¹
{CH2CO}-[dW]AVSNLPPRPHITYIECS (thioether N-17) [SEQ ID NO 40],Kd,human Plexin B1 [13],700 nM
same,koff,human Plexin B1 [13],0.014 s⁻¹
same,kon,human Plexin B1 [13],20000 M⁻¹ s⁻¹
{CH2CO}-[dW]LGYIARWTGTVVKCG (thioether N-15) [cyclic peptide mp6-3],Kd,mouse Plexin B1,227 nM
same,Kd,human Plexin B1 [12],241 nM
{CH2CO}-[dW]RVRVERWTGKLICS (thioether N-14) [SEQ ID NO 31],Kd,human Plexin B1 [13],33.7 nM
same,koff,human Plexin B1 [13],0.144 s⁻¹
same,kon,human Plexin B1 [13],4.27e+06 M⁻¹ s⁻¹
